A word on the Km: it is the concentration of substrate that gives half-maximal velocity.

We go through 1 protein from PMC6894463, “Improved spectrophotometric assay for lytic polysaccharide monooxygenase” (Biotechnology for Biofuels, 2019).

Substrate in the data set: COc1cc(-c2cc(OC)c(O)c(OC)c2)cc(OC)c1O
Briefly: purified protein. Format: biochemical, Neurospora crassa. As to conditions: 100 µM H2O2 co-substrate, 50 mM sodium phosphate pH 6.0, apparent, no saturation reached.

B1: NcLPMO9C (Neurospora crassa OR74A) (protein)
chain: HTIFQKVSVNGADQGQLKGIRAPANNNPVTDVMSSDIICNAVTMKDSNVLTVPAGAKVGHFWGHEIGGAAGPNDADNPIAASHKGPIMVYLAKVDNAATTGTSGLKWFKVAEAGLSNGKWAVDDLIANNGWSYFDMPTCIAPGQYLMRAELIALHNAGSQAGAQFYIGCAQINVTGGGSASPSNTVSFPGAYSASDPGILINIYGGSGKTDNGGKPYQIPGPALFTCPAGGSGGSSPAPATTASTPKPTSASAPKPVSTTASTPKPTNGSGSGTGAAHSTKCGGSKPAATTKASNPQPTNGGNSAVRAAALYGQCGGKGWTGPTSCASGTCKFSNDWYSQCLP
notes: full-length secreted enzyme, recombinant in Pichia pastoris X-33, purified
In the case of B1, the Km was 3.6 ± 0.5 mM.
